US20200330553A1 (BRIGHAM AND WOMEN S HOSPITAL, published 2020)

Columns and labels:
[1] = biological target: the molecule itself; test: non-reducing western blot, HEK293 cells and EVs
Source text: Next, the intermolecular disulfide bond was examined in the intracellular domain. Since sortilin has only one cysteine (Cys⁷⁸³) in the intracellular domain, the cysteine was expected to form an intermolecular disulfide bond for dimerization in the intracellular domain. Cys⁷⁸³ was replaced by alanine (C783A) in 6×His-sortilin ICD+TMD and FLAG-sortilin Full (FIG. 5A). […] The homodimers of low molecular weight were mainly transported to EVs, while homodimers of high molecular weight and multimers were mainly not transported to EVs (FIG. 5D). […] Since Cys⁷⁸³ was reported to be palmitoylated (22), the connection between palmitoylation and intermolecular disulfide bond was studied by incubating FLAG-sortilin HEK293 cells with an inhibitor of palmitoylation, 2-fluoropalmitic acid (2-FPA) (22), which increased only homodimers of lower molecular size in the cells (FIG. 5E).
Cells, EVs and the supernatant of culture medium were lysed with IP lysis buffer (Thermo Fisher Scientific Inc., Cat#87787) containing protease inhibitor (Roche Diagnostics, Cat#04693159001). Protein concentration was measured using the bicinchoninic acid (BCA) method (Thermo Fisher Scientific Inc., Cat#23225). Laemmli buffer (Boston Bioproduct; non-reducing, Cat#BP-110NR; reducing, Cat#BP-111R) was added to the lysate, and boiled at 95° C. for 5 minutes.

[2] = biological target: the molecule itself; test: MG-132, anti-FLAG immunoprecipitation, non-reducing western blot
Description: FLAG-sortilin Full and ECD+TMD forms homodimers and multimers. Empty vector was used as control. […] MG-132 increased FLAG-sortilin ICD+TMD in a time and concentration-dependent manner. […] Monomers, homodimers and multimers are abbreviated as MO, D and MU, respectively. IB, immunoblotting.
Cells or EVs were lysed in IP lysis buffer. Anti-FLAG M2 antibody (5 μg) or mouse IgG (5 lig, R&D Systems, Cat#MAB002, Lot# IX2415091) were incubated with Dynabeads with Protein G (Thermo Fisher Scientific Inc., Cat#10004D) by rotation for overnight at 4° C. Cell lysate was incubated for 4 hours at 4° C. under rotating conditions. The bead-antibody-protein complex was washed with PBS 3 times. Then, Laemmli buffer was added to the precipitates for SDS-PAGE.

Protein	binding result [1]	binding result [2]
FLAG-sortilin C783A (receptor, also called C783A mutant) SAPDYKDDDDKGEDEECGRVRDFVAKLANNTHQHVFDDLRGSVSLSWVGDSTGVILVLTTFHVPLVIMTFGQSKLYRSEDYGKNFKDITDLINNTFIRTEFGMAIGPENSGKVVLTAEVSGGSRGGRIFRSSDFAKNFVQTDLPFHPLTQMMYSPQNSDYLLALSTENGLWVSKNFGGKWEEIHKAVCLAKWGSDNTIFFTTYANGSCKADLGALELWRTSDLGKSFKTIGVKIYSFGLGGRFLFASVMADKDTTRRIHVSTDQGDTWSMAQLPSVGQEQFYSILAANDDMVFMHVDEPGDTGFGTIFTSDDRGIVYSKSLDRHLYTTTGGETDFTNVTSLRGVYITSVLSEDNSIQTMITFDQGGRWTHLRKPENSECDATAKNKNECSLHIHASYSISQKLNVPMAPLSEPNAVGIVIAHGSVGDAISVMVPDVYISDDGGYSWTKMLEGPHYYTILDSGGIIVAIEHSSRPINVIKFSTDEGQCWQTYTFTRDPIYFTGLASEPGARSMNISIWGFTESFLTSQWVSYTIDFKDILERNCEEKDYTIWLAHSTDPEDYEDGCILGYKEQFLRLRKSSMCQNGRDYVVTKQPSICLCSLEDFLCDFGYYRPENDSKCVEQPELKGHDLEFCLYGREEHLTTNGYRKIPGDKCQGGVNPVREVKDLKKKCTSNFLSPEKQNSKSNSVPIILAIVGLMLVTVVAGVLIVKKYVAGGRFLVHRYSVLQQHAEANGVDGVDALDTASHTNKSGYHDDSDEDLLE	binds	
FLAG-sortilin ICD+TMD (receptor, written as the form after propeptide cleavage) SAPDYKDDDDKNSVPIILAIVGLMLVTVVAGVLIVKKYVCGGRFLVHRYSVLQQHAEANGVDGVDALDTASHTNKSGYHDDSDEDLLE		binds
